Source: article PMC4821239, “Molecular architecture of the Dam1 complex–microtubule interaction” (Open Biology, 2016)

T1: Dam1 (budding yeast, UniProt P53267 1-343)
T1 construct: Dam1, subunit of the budding yeast Dam1 complex; Subunit inside the recombinant 10-subunit complex; also called Dam1 subunit; source: expressed and purified as part of the Dam1 complex as described [3]
T1 sequence (looked up): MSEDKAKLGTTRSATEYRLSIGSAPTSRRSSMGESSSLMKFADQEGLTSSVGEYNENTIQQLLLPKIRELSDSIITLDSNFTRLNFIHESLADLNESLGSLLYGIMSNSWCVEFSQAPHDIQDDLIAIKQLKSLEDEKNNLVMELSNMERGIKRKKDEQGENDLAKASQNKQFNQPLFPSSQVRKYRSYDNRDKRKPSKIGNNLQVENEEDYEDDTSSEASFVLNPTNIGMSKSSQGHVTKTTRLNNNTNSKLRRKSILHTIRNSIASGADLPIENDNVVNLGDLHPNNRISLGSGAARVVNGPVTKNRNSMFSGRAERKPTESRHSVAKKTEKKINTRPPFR

T2: Dad2 (budding yeast, UniProt P36162 1-133)
T2 construct: Dad2, subunit of the budding yeast Dam1 complex; Subunit inside the recombinant 10-subunit complex; source: expressed and purified as part of the Dam1 complex as described [3]
T2 sequence (looked up): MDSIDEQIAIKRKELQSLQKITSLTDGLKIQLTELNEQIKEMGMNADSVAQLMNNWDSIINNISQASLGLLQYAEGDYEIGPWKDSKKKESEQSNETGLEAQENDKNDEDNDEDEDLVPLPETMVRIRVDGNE

T3: Spc19 (budding yeast, UniProt Q03954 1-165)
T3 construct: Spc19, subunit of the budding yeast Dam1 complex; Subunit inside the recombinant 10-subunit complex; also called Sp19; source: expressed and purified as part of the Dam1 complex as described [3]
T3 sequence (looked up): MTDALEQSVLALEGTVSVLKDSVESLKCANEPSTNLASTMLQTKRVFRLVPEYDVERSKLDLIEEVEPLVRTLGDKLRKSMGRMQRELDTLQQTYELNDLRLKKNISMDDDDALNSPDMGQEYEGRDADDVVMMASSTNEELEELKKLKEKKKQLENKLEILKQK

T4: Spc34 (budding yeast, UniProt P36131 1-295)
T4 construct: Spc34, subunit of the budding yeast Dam1 complex; Subunit inside the recombinant 10-subunit complex; source: expressed and purified as part of the Dam1 complex as described [3]
T4 sequence (looked up): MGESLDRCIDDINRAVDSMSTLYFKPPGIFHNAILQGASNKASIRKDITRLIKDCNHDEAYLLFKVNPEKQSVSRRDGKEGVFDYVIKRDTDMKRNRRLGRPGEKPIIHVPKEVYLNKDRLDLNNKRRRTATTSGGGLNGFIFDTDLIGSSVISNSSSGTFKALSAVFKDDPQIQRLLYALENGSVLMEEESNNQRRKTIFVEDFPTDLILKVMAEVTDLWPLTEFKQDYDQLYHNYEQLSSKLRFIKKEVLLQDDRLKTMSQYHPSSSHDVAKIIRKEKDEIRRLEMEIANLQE

T5: Ask1 (budding yeast, UniProt P35734 1-292)
T5 construct: Ask1, subunit of the budding yeast Dam1 complex; Subunit inside the recombinant 10-subunit complex; source: expressed and purified as part of the Dam1 complex as described [3]
T5 sequence (looked up): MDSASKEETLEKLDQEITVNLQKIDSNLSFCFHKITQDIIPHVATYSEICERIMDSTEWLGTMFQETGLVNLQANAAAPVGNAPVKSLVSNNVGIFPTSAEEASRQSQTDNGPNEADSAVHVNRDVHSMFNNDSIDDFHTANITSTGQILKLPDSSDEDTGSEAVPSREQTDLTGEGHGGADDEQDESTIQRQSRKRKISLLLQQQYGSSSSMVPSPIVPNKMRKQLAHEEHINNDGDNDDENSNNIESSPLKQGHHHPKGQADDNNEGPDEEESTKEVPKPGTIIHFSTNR

B1: Hsk3 (natural protein, budding yeast, UniProt P69852 1-69, looked up)
chain: MNANKQRQYNQLAHELRELQTNLQETTKQLDIMSKQCNENLVGQLGKVHGSWLIGSYIYYMEQMLGKTQ
notes: Hsk3, subunit of the budding yeast Dam1 complex; Subunit inside the recombinant 10-subunit complex; also called his-tagged Hsk3; source: expressed and purified as part of the Dam1 complex as described [3]; mutant complexes by Ni-NTA and Superose 6
B2: Dad4 (natural protein, budding yeast, UniProt P69851 1-72, looked up)
chain: MENPHEQVQANILSRIIGNVKRLNESVAILNQELVTINNRNKNLEIMGAICDNYHSSVQFNLEATNNKKPPL
notes: Dad4, subunit of the budding yeast Dam1 complex; Subunit inside the recombinant 10-subunit complex; source: expressed and purified as part of the Dam1 complex as described [3]

How the values were obtained:
Dam1 = target: T1, Dam1; experiment: cross-linking; BS3, Dam1 complex at 0.3 mg/ml in BRB80, room temperature 40-60 min, digested in solution, mass spectrometry; some links may be between oligomerizing complexes; conditions: both partners purified
Dad4 = target: B2; experiment: affinity purification with mass spectrometry; mutant Dam1 complexes purified by the His tag on Hsk3 (Ni-NTA), then Superose 6 size-exclusion chromatography; proteins identified by mass spectrometry; conditions: partners not purified
Dad2 [1] = target: T2, Dad2; experiment: as above; conditions: partners not purified
Spc19 = target: T3, Spc19; experiment: cross-linking; BS3, Dam1 complex at 0.3 mg/ml in BRB80, room temperature 40-60 min, digested in solution, mass spectrometry; some links may be between oligomerizing complexes; conditions: both partners purified
Spc34 = target: T4, Spc34; experiment: as above; conditions: both partners purified
Ask1 = target: T5, Ask1; experiment: cross-linking; EDC with Sulfo-NHS, Dam1 complex assembled on taxol-stabilized microtubules in BRB80, pellet washed, room temperature 1 h, digested in solution, mass spectrometry; conditions: both partners purified
Dad2 [2] = target: T2, Dad2; experiment: cross-linking; BS3, Dam1 complex at 0.05 mg/ml in solution; cross-linked species (approx. 110, 220 and 440 kDa) separated by SDS-PAGE, bands cut out, in-gel trypsin digestion, mass spectrometry; conditions: both partners purified

Measured: binding result

B1
binds: Dam1 | Dad4 | Dad2 [1]

B2
binds: Dam1 | Spc19 | Spc34 | Ask1 | Dad2 [2]
